Measurements from the supplement of paper PMC10126150.
± gives the standard deviation of the averaged measurements.

Tested on: ATP
Test: switch fluorescence ratio, 500 uM ATP over buffer (Cy3 cluster intensity, sum of 5 cycles each) (fold (ratio)); higher = stronger signal-on switching upon ATP binding; sequences stand for … in TCGTCGGCAGCGTCAGATGTGTATAAGAGACAGTTTTTTTTTTTTTTTTTTTTTTTTT…TC
Conditions: aptamer strand: ATP DNA aptamer (quencher-CACCTGGGGGAGTATTGCGGAGGAAGG + anchor), 100 nM annealed; ATP concentration: 500 uM
Method in brief: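 The fluorescence ratio divides summed target-cycle Cy3 intensity by summed buffer-cycle Cy3 intensity for each cluster and is averaged per switch-domain sequence. Cy3-labelled switching-strand clusters on a modified Illumina MiSeq flow-cell were annealed to 100 nM quencher-labelled ATP aptamer, then imaged in selection buffer and again after 15 min with 500 uM ATP at 22 °C. Five such cycles were run, with NaOH stripping and re-annealing between them, and clusters outside 100-1000 RFU were excluded.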
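Also: ATP exposure 15 min at 22 °C before imaging.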

Row | Sequence | switch fluorescence ratio
1 | CCGGGGGTTG | 1.04 ± 0.057
2 | GCCTTATATA | 0.9952 ± 0.0063
3 | CATCGATGGT | 1.004 ± 0.0026
4 | TTGATTGATT | 0.9916 ± 0.0055
5 | GCCTTAACGG | 1.01 ± 0.021
6 | CTGTATTACG | 0.995 ± 0.027
7 | GCAGCAGATG | 1.077 ± 0.0072
8 | GGGTTGTTTT | 0.9944 ± 0.0082
9 | AATAAAAAGT | 0.982 ± 0.023
10 | AAGGCGGGGT | 0.997 ± 0.033
11 | GAGAAATTGG | 1 ± 0.022
12 | GTTTTTCGCC | 1 ± 0.02
13 | GATTGTGACG | 1.06 ± 0.057
14 | TTTTTCAGGA | 0.975 ± 0.024
15 | GGGATATGGA | 1.04 ± 0.049
16 | GAGGATGATC | 1.01 ± 0.032
17 | ACTGCTTCCT | 1.34 ± 0.051
18 | TTGAATCCAT | 1.01 ± 0.019
19 | CTTATAACAG | 1.01 ± 0.018
20 | ACAGTAGGAA | 1.08 ± 0.035
21 | TGGAGCTGCA | 1.04 ± 0.09
22 | GGATTTACGG | 1.001 ± 0.0028
23 | TCATTGTGCT | 0.975 ± 0.015

Row | Sequence | switch fluorescence ratio
24 | TTTCTGTAAT | 1.05 ± 0.03
25 | AACAGTATTT | 1.04 ± 0.011
26 | TTATTTTGTA | 1.03 ± 0.013
27 | CAGGGGGAAC | 1.04 ± 0.061
28 | TTTCCTTTGA | 1.06 ± 0.07
29 | GCGTGAGCGA | 0.985 ± 0.042
30 | TTTTAAATCT | 1.03 ± 0.019
31 | AAATATTATA | 1.02 ± 0.031
32 | CCGTATGTTT | 1.11 ± 0.091
33 | TTTCAAGTGC | 1.03 ± 0.064
34 | TTTTTACGGA | 1.02 ± 0.043
35 | GCGGGGCCAC | 1.2 ± 0.26
36 | TCACCATTCA | 1.052 ± 0.0059
37 | TTTGGAGGGC | 1.06 ± 0.065
38 | CGTTCTATCT | 1 ± 0.079
39 | TGTTTGTGAA | 0.9815 ± 0.0032
40 | GGGGCTGAGG | 0.93589 ± 0.00088
41 | GAGCAATGTG | 1.22 ± 0.3
42 | AGTAGGGTGG | 0.991 ± 0.032
43 | CGTCCTGAGG | 1.04 ± 0.019
44 | AGTCGGTTCG | 0.986 ± 0.03
45 | TGGCGGGTCG | 1.06 ± 0.079
46 | CACAGCGTCG | 1 ± 0.017

Row | Sequence | switch fluorescence ratio
47 | ATTCCCAATT | 1.04 ± 0.025
48 | ATTCGGGGGG | 0.99 ± 0.022
49 | TAGAAAAGGT | 0.974 ± 0.028
50 | ACGCAGCTGT | 1.379 ± 0.0027
51 | AAAGGGGATG | 1.01 ± 0.016
52 | AGGCGTGGCT | 0.982 ± 0.064
53 | GGGTCTTTTT | 1.02 ± 0.055
54 | TATCAGTGGT | 0.997 ± 0.026
55 | AACGGGCCAG | 0.997 ± 0.028
56 | CTCGTGTGTG | 1.044 ± 0.0073
57 | TGCGAAAATT | 1.01 ± 0.08
58 | TGTTCCGGAC | 1.023 ± 0.0058
59 | AGGGTATTTC | 1.02 ± 0.012
60 | TCCGTGGGTG | 1.38 ± 0.21
61 | AATATTTAGT | 1 ± 0.024
62 | ATAGTTCTAA | 0.9939 ± 0.0048
63 | GGGAGGGTGG | 0.996 ± 0.06
64 | CGCTCTAATA | 1.058 ± 0.01
65 | ATCATTAACT | 1.02 ± 0.013
66 | TTTACGGTGC | 1.25 ± 0.15
67 | GGGGTCGGG | 0.977 ± 0.044
68 | TAAAAAGCGC | 1.03 ± 0.03
69 | GATCCGCTGG | 1.11 ± 0.012

Row | Sequence | switch fluorescence ratio
70 | AGTTTTGACC | 1.03 ± 0.059
71 | CATTTCTGTT | 1.004 ± 0.0047
72 | TTACTTTTCG | 1.03 ± 0.057
73 | CGGCAGTATG | 1.02 ± 0.011
74 | ATTACGGGAT | 1.01 ± 0.062
75 | AAAATGGGTG | 0.976 ± 0.015
76 | TAATTGTTAT | 0.986 ± 0.024
77 | ATTCGGGGCT | 1 ± 0.038
78 | ATGCTTATTG | 0.973 ± 0.015
79 | TCTGTTCATG | 1.001 ± 0.0081
80 | CGTTCTTGTT | 0.976 ± 0.032
81 | CGGTCCGGGT | 0.99721 ± 0.00018
82 | GGTGCCAAGT | 1.004 ± 0.0052
83 | GTGAGTTGCT | 1.002 ± 0.005
84 | CGAGAAGTTT | 1.005 ± 0.0081
85 | GCACTTGGTC | 0.989 ± 0.011
86 | TTTTGTCGGT | 0.9667 ± 0.0042
87 | TCGGGGAATG | 1.002 ± 0.0032
88 | GAGTACAGCT | 1.01 ± 0.018
89 | ATAGTTCCAG | 1.002 ± 0.0087
90 | AATCTGGGGC | 0.968 ± 0.011
91 | TTCGGGATGA | 1 ± 0.056
92 | TTTATTGGTG | 1.03 ± 0.1

Row | Sequence | switch fluorescence ratio
93 | GACACCATCC | 1.55 ± 0.18
94 | CGGGGTTATT | 0.989 ± 0.014
95 | ATGTGGCTTA | 0.989 ± 0.022
96 | GAGAATGGCA | 0.964 ± 0.028
97 | ATGCGATTTG | 1 ± 0.057
98 | TGCATTCAGG | 1.02 ± 0.03
99 | GTTATATTGG | 0.992 ± 0.022
100 | TGGGTATAAA | 0.976 ± 0.029
101 | GGACATATTT | 1.03 ± 0.042
102 | GAATTAAACG | 1.02 ± 0.024
103 | CATGTAGTA | 0.987 ± 0.028
104 | AAAAGAATGG | 0.971 ± 0.043
105 | TTGTAAGTT | 0.99664 ± 0.00012
106 | CCCATCCCCG | 1.2 ± 0.084
107 | AATTTGAGAA | 0.998 ± 0.029
108 | TGGTTTTTT | 0.998 ± 0.03
109 | GTCACTATTG | 1.02 ± 0.0022
110 | TTTGTGTAAT | 0.989 ± 0.038
111 | CGAGGGAGTA | 0.993 ± 0.035
112 | AACTGGGGAT | 0.9809 ± 0.0018
113 | ATTTGTTAAG | 1 ± 0.016
114 | GAATAGGGGA | 1.02 ± 0.022
115 | CCTATGTGCT | 1.038 ± 0.0059

Row | Sequence | switch fluorescence ratio
116 | CCGTTGTGCG | 1.02 ± 0.027
117 | GGTTGAAGAG | 0.955 ± 0.011
118 | GGGACGTGTG | 1.007 ± 0.0068
119 | TGTGTATGCT | 0.9868 ± 0.0078
120 | GATTGAATTT | 0.989 ± 0.032
121 | ATTTTGAGTT | 0.982 ± 0.016
122 | AAGAAGTTGC | 0.9861 ± 0.0034
123 | GTAGTTTTAC | 1.042 ± 0.0071
124 | ATGTAATTTA | 1 ± 0.017
125 | GGGGGTGTGG | 0.999 ± 0.035
126 | GTTCTTTTGG | 0.973 ± 0.01
127 | AGTTTTGGTA | 1.02 ± 0.064
128 | TTTGCTAAAT | 1.02 ± 0.02
129 | TAGGATTGG | 0.971 ± 0.015
130 | AATAGGACGG | 1.03 ± 0.022
131 | ATTGGTAGTG | 0.997 ± 0.034
132 | ACTTTTTATG | 0.991 ± 0.035
133 | AGGGGCTAGG | 0.983 ± 0.033
134 | ACCCATGAAG | 0.989 ± 0.015
135 | TTGAAATAAT | 1.1 ± 0.14
136 | GAGCGCGAGG | 0.99 ± 0.037
137 | CCGCTCGAAT | 3.36 ± 0.38
138 | ACATCATACG | 1.233 ± 0.01

Row | Sequence | switch fluorescence ratio
139 | GGAAGTTAGT | 0.98253 ± 0.00016
140 | AGTATATGGA | 1.01 ± 0.013
141 | GGGAAAGGTG | 1.54 ± 0.11
142 | TAGGGGAATA | 1.01 ± 0.044
143 | TGGGAATTTT | 1.01 ± 0.049
144 | CTGTACTGGG | 0.9989 ± 0.0061
145 | ATGGTCGGTC | 0.989 ± 0.036
146 | TTTGCATGCA | 1.03 ± 0.02
147 | CAGTTGACTC | 1 ± 0.072
148 | AGTGGGTCGG | 0.9824 ± 0.0097
149 | TACCCGGGTT | 1.11 ± 0.2
150 | ATTTGAAACT | 1.02 ± 0.029
151 | TCCCTGGGGG | 1.08 ± 0.11
152 | CACACTGGCA | 0.996 ± 0.05
153 | GAGTGGTAGG | 1.01 ± 0.021
154 | AGAGGGGTTA | 1.01 ± 0.056
155 | CAGGGCTTGA | 1.03 ± 0.093
156 | CCAGGTGGGA | 3.53 ± 1.5
157 | GGGGGCTAGG | 1.02 ± 0.02
